Experimental data taken from patent US20030072752A1 (GENERAL HOSPITAL CORPORATION A MASSACHUSETTS, published 2003).

Tests used:
bovine cathepsin L [1] = molecular target: T1, bovine cathepsin L (bovine, UniProt P25975 118-334, limits assumed); assay: enzyme inhibition (method not restated here)
T1 construct: also called chatepsin L

papain = papain (UniProt P00784); assay: enzyme inhibition, Dixon plots at different substrate concentrations (BANA)
bovine cathepsin L [2] = molecular target: T1, bovine cathepsin L; assay: enzyme inhibition, Dixon plots at different substrate concentrations (Z-Phe-Arg-MCA)
bovine cathepsin L [3] = molecular target: T1, bovine cathepsin L; assay: enzyme inhibition (method and origin of the value not stated)

T1 sequence (P25975 118-334 limits assumed): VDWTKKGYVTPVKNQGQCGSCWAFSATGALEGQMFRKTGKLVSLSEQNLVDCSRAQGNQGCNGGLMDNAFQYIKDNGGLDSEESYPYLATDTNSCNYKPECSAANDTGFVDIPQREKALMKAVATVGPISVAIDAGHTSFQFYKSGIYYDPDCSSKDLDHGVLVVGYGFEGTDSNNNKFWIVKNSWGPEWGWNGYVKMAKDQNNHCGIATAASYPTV
Chain of papain (P00784 134-345 limits assumed): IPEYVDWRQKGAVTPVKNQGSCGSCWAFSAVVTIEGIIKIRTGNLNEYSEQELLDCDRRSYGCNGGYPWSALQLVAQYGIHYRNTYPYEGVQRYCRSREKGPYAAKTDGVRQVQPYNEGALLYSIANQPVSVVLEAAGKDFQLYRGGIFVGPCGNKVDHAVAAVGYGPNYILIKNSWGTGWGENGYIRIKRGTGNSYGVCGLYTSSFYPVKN

Ki (bovine cathepsin L [1]) [nM] | Ki (papain) [nM] | Ki (bovine cathepsin L [2]) [nM] | Ki (bovine cathepsin L [3]) [nM] | Molecule
5.9 | 1.68 | 1.9 | – | psoriastatin preparation (purified from psoriatic scale extract)
– | – | – | 0.067 | squamous cell carcinoma-antigen (SCC-A) (other, UniProt P29508 1-390, looked up) MNSLSEANTKFMFDLFQQFRKSKENNIFYSPISITSALGMVLLGAKDNTAQQIKKVLHFDQVTENTTGKAATYHVDRSGNVHHQFQKLLTEFNKSTDAYELKIANKLFGEKTYLFLQEYLDAIKKFYQTSVESVDFANAPEESRKKINSWVESQTNEKIKNLIPEGNIGSNTTLVLVNAIYFKGQWEKKFNKEDTKEEKFWPNKNTYKSIQMMRQYTSFHFASLEDVQAKVLEIPYKGKDLSMIVLLPNEIDGLQKLEEKLTAEKLMEWTSLQNMRETRVDLHLPRFKVEESYDLKDTLRTMGMVDIFNGDADLSGMTGSRGLVLSGVLHKAFVEVTEEGAEAAAATAVVGFGSSPASTNEEFHCNHPFLFFIRQNKTNSILFYGRFSSP
